The source of these data is article PMC9820303, “^αN-Acetyl β-Endorphin Is an Endogenous Ligand of σ1Rs That Regulates Mu-Opioid Receptor Signaling by Exchanging G Proteins for σ2Rs in σ1R Oligomers” (International Journal of Molecular Sciences, 2022).

One assay deals with σ1R-σ2R (Mus musculus, UniProt O55242). The assay is described as follows: σ1R/σ2R coprecipitation from CHO cells cotransfected with cMyc-σ1R and HA-σ2R. The assay is classed as cell-based, Chinese hamster ovary (CHO) cells. On the set-up: Full-length sigma receptors were subcloned in frame; expressed in transfected cells; host or cells: CHO cells. As to conditions: peptides 1 nM, PRE084, S1RA and BD1047 100 nM; 30 min in serum-free medium. On the procedure: Effect of β-End 1–31 and ^αN-acetyl derivative. (A) Single-wavelength and merged images of CHO cells cotransfected with cMyc-σ1R and HA-σ2R. The cells were fixed 48 h after transfection and analyzed by confocal laser scanning microscopy. Transient expression of proteins within the transfected cells was detected with anti-cMyc (green) and anti-HA (red) antibodies (original magnification 10×). […] Scale bar: 30 µm. (B) Nuclei stained with DAPI (blue). (C–F) Single-wavelength and merged images are enlargements of individual cells. Scale bar: 5 µm. Lower panels: (G) Immunoprecipitation (IP) of tagged sigma receptor types from cotransfected CHO cells. […] Representative blots are shown.
CHO cells were cultured in modified Eagle’s medium/nutrient mixture F-12 (DMEM/F12) supplemented with GlutaMax (#31331028, ThermoFisher, Spain), 10% foetal bovine serum (#10500064, ThermoFisher), 100 IU/mL penicillin and 100 μg/mL streptomycin (#15140148, ThermoFisher) at 37 °C in a humidified 5% CO2 incubator as described previously. Full-length sigma receptors were subcloned in frame into the pSF-CMV-Puro-NH2-CMyc N-terminal tag (σ1R, #OGS3214, Merck-Sigma) and pSF-CMV-Puro-NH2-HA N-terminal tag (σ2R, #OGS1500, Merck-Sigma) mammalian plasmids using standard cloning strategies. CHO cells were seeded on 12-well plates at a concentration of 0.35 × 10^6 cells per well, grown in Opti-MEM™ I Reduced Serum Medium (#31985070, ThermoFisher) to 70–80% confluence, transfected using Lipofectamine 2000 (#11668030, Invitrogen) and incubated for 24 h prior to testing for transgene expression. For all experiments, the culture medium was replaced with serum-free medium before the addition of sigma ligands and incubated for 30 min. Cells were then harvested and cellular extracts were prepared for immunoprecipitation analysis. Receptors were detected by Western blot analysis using an antibody that recognizes either tag: Myc-tag (#MA1 21316 BTIN, Invitrogen), HA-tag (#26183-BTIN, Invitrogen).

The target in assay [1] is T1, σ1R oligomers-G proteins (Gi2, Go, Gq-11, Gz) (Mus musculus, UniProt O55242).
T1 construct: The coding region of the full-length murine σ1R (AF004927); GST (N); made in house; host or cells: E. coli BL21 (KRX) for σ1R; the G proteins come from solubilised mouse cerebral cortex synaptosomal membranes
The assay is described as follows: Ex vivo fishing assay: G proteins of mouse solubilized brain membranes (SBM) bound to agarose-σ1R oligomers. The note with it: for effect on G protein binding to agarose-σ1R oligomers: 2 h, increasing concentrations, n = 3. The assay is classed as biochemical. The protocol:
(A) The effect of σ1R deletion on opioid- and cannabinoid-induced analgesia. Analgesic compounds were icv-injected into wild-type and σ1R^−/− mice, and analgesia was evaluated 30 min after morphine (3 nmol) and β-End 1–31 (0.5 nmol), 15 min after DAMGO (0.1 nmol) and DPDPE (10 nmol) and 10 min after WIN55,212-2 (15 nmol). The bars are the mean ± SD of eight mice per strain and treatment. * Significant difference with respect to the effect of the analgesic substance in the wild-type group. ANOVA followed by the Holm–Sidak multiple comparisons test, p < 0.05, 1-β > 0.80. (B) Coprecipitation of G proteins with MORs. Solubilized mouse brain cortical membranes enriched in synaptosomes (SBM) from CD1 wild-type (WT) and σ1R^−/− mice were solubilized with sonication in the presence of 1% NP-40. Non-soluble debris was eliminated, and the samples were then incubated overnight at 4 °C with affinity-purified biotinylated IgGs that were raised against extracellular regions of the MOR. Protein complexes that were immunoprecipitated with streptavidin agarose were extensively washed and then resolved by SDS-PAGE. The target G proteins, alpha and beta subunits, were visualized by Western blotting (for further details, see Section 4). IP: immunoprecipitated protein, WB: Western blot. Detection of MORs: these proteins were detected with an anti-MOR antibody directed to the C-terminal sequence, a different amino acid sequence than that used for immunoprecipitation (second extracellular loop-2EL). In parallel blots, an antibody directed to the light IgG chain of the anti-MOR antibodies used for immunoprecipitation of MORs provided a loading control for the samples in the gels. […] The immunosignals of Gα subunits coprecipitated with MORs were referred to those of the MORs. Data are the mean ± SD of three determinations. ANOVA followed by the Holm–Sidak multiple comparisons test, p < 0.05, 1-β > 0.80. (C) Pull-down assays using mouse SBM. Cerebral cortex fractions enriched in synaptosomes from CD1 WT mice were solubilized with RIPA buffer and incubated for 2 h with recombinant σ1Rs covalently attached to agarose-NHS (Θ-σ1R). Agarose pellets containing the bound proteins were resolved by SDS-PAGE, and the G protein α subunits were probed in Western blots. The capture of σ1Rs and σ2Rs by Θ-σ1R was also determined in SBM from WT, σ1R^−/− and σ2R^−/− mice. […] Representative blots are shown. (D) Effect of ligands on the association of endogenous G proteins present in mouse SBM with Θ-σ1R oligomers produced in vitro (see Section 4). The Θ-σ1Rs were incubated with the SBM in the absence and presence of increasing concentrations of σ1R ligands. The G proteins that remained bound to Θ-σ1R oligomers were determined as in (C). […] For each compound and concentration studied data are the mean ± SD, n = 3. Data were analyzed by pairwise Holm–Sidak multiple comparison tests following ANOVA: p < 0.05, 1-β > 0.80.
For fishing studies, solubilization of neural synaptosomes from cerebral cortices or PAG was carried out at 4 °C in RIPA buffer. The membranes were incubated at 4 °C for 16 h with agitation, and then centrifuged at 10,000× g for 5 min. The supernatant was cleared with 20 μL of Sepharose 4B (#17-0120-01, GE Healthcare) pre-equilibrated for 1 h at 4 °C, followed by centrifugation at 4300× g for 5 min. The σ1R was immobilized through covalent attachment to N-Hydroxysuccinimide (NHS)-activated Sepharose 4 fast flow (4FF, #17-0906-01; GE) according to the manufacturer’s instructions.

T1 sequence (O55242 whole entry): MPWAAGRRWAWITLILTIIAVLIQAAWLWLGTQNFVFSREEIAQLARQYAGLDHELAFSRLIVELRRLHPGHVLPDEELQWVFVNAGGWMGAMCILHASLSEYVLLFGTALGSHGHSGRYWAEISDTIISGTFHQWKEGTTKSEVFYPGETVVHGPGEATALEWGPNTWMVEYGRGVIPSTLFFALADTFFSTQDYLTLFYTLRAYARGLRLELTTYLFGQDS
Sequence of σ1R-σ2R (O55242 whole entry): as above

For the molecule `Br.Br.CN(C)CCN(C)CCc1ccc(Cl)c(Cl)c1` [BD1047, N′-[2-(3,4-dichlorophenyl)ethyl]-N,N,N′-trimethylethane-1,2-diamine;dihydrobromide, reference compound], on σ1R-σ2R, the “effect on σ1R-σ2R association in CHO cells” value (from here on “effect on σ1R-σ2R association”) is on record as “preserved these protein complexes”.
Take `Cl.O=C(OCCN1CCOCC1)C1(c2ccccc2)CCCCC1` [PRE084, 2-(4-morpholinethyl)-1-phenylcyclohexanecarboxylate hydrochloride, reference compound]: in assay [1] (wild-type SBM), the “effect on G protein binding to agarose-σ1R oligomers” value (from here on “effect on G protein binding”) was “did not disrupt G protein binding to σ1R oligomers but increased the binding to Gz proteins”. For the same molecule, the “effect on σ1R-σ2R association” value at σ1R-σ2R is listed as “strongly decreased the σ1R-σ2R association”.
With `Cc1cc(OCCN2CCOCC2)nn1-c1ccc2ccccc2c1` [S1RA], in assay [1] (wild-type SBM), the “effect on G protein binding” value is on record as “exhibited G-protein-releasing effects”. The “effect on σ1R-σ2R association” value on σ1R-σ2R was “preserved these protein complexes”.
As to “KKGE [β-End 28–31, C-terminal tetrapeptide of β-End 1–31]”, in assay [1] (wild-type SBM), the “effect on G protein binding” value is “showed G-protein-releasing effects”.
As to “^αN-acetyl β-End 1–31: β-End 1–31 acetylated at N terminal Y1, α position”, the “release of G proteins from σ1R oligomers in the absence of σ2Rs” value in assay [1] (SBM from σ2R−/− mice) is listed as “failed to release G proteins from σ1R oligomers”. In assay [1] (wild-type SBM), the “concentrations needed for Gz to be freed from σ1R oligomers” value is “pM concentrations”; the “concentrations releasing Go, Gq-11 and Gi2 proteins from σ1R oligomers” value is on record as “fM concentrations”; the “effect on G protein binding” value is on record as “efficiently released G proteins from agarose-σ1Rs”. Further, the “effect on σ1R-σ2R association” value with σ1R-σ2R is “preserved these protein complexes”.
For the molecule “β-End 1–26: β-End 1–31 derivative without 5 C-terminal residues (YGGFMTSEKSQTPLVTLFKNAIIKNA; Beta-endorphin; UniProt P01189 237-262, looked up, fragment)”, the “effect on G protein binding” value in assay [1] (wild-type SBM) was “showed G-protein-releasing effects”.
Regarding “β-End 1–27: β-End 1–31 derivative without 4 C-terminal residues (YGGFMTSEKSQTPLVTLFKNAIIKNAY; Beta-endorphin; UniProt P01189 237-263, looked up, fragment)”, in assay [1] (wild-type SBM), the “effect on G protein binding” value is recorded as “showed G-protein-releasing effects”.
